According to publication PMC4157582:

Target: TAP-Mud13p (S. cerevisiae) (UniProt Q08920)
Test: pull-down

Chain of UniProt Q08920 (Q08920 whole entry): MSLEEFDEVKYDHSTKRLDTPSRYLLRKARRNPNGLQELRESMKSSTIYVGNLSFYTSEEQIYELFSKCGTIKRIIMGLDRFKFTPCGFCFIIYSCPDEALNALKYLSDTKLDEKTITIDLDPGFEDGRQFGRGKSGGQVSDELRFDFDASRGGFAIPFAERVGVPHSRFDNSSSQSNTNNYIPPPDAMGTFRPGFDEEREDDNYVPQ

percent reduction of the interaction efficiency against wild-type Tif4631p: > 30%
B1: Tif4631p Δ491-501 (natural protein)
chain: MTDETAHPTQSASKQESAALKQTGDDQQESQQQRGYTNYNNGSNYTQKKPYNSNRPHQQRGGKFGPNRYNNRGNYNGGGSFRGGHMGANSSNVPWTGYYNNYPVYYQPQQMAAAGSAPANPIPVEEKSPVPTKIEITTKSGEHLDLKEQHKAKLQSQERSTVSPQPESKLKETSDSTSTSTPTPTPSTNDSKASSEENISEAEKTRRNFIEQVKLRKAALEKKRKEQLEGSSGNNNIPMKTTPENVEEKGSDKPEVTEKTKPAEEKSAEPEVKQETPAEEGEQGEKGQIKEESTPKVLTFAERLKLKKQQKEREEKTEGKENKEVPVQEETKSAIESAPVPPSEQVKEETEVAETEQSNIDESATTPAIPTKSDEAEAEVEAEAGDAGTKIGLEAEIETTTDETDDGTNTVSHILNVLKDATPIEDVFSFNYPEGIEGPDIKYKKEHVKYTYGPTFLLQFKDKLNVKADAEWVQSTASKIVIPPGMGRGNSSRGHDFRNTSVRNMDDRANSRTSSKRRSKRMNDDRRSNRSYTSRRDRERGSYRNEEKREDDKPKEEVAPLVPSANRWVPKFKSKKTEKKLAPDGKTELLDKDEVERKMKSLLNKLTLEMFDAISSEILAIANISVWETNGETLKAVIEQIFLKACDEPHWSSMYAQLCGKVVKELNPDITDETNEGKTGPKLVLHYLVARCHAEFDKGWTDKLPTNEDGTPLEPEMMSEEYYAAASAKRRGLGLVRFIGFLYRLNLLTGKMMFECFRRLMKDLTDSPSEETLESVVELLNTVGEQFETDSFRTGQATLEGSQLLDSLFGILDNIIQTAKISSRIKFKLIDIKELRHDKNWNSDKKDNGPKTIQQIHEEEERQRQLKNNSRSNSRRTNNSSNRHSFRRDAPPASKDSFITTRTYSQRNSQRAPPPKEEPAAPTSTATNMFSALMGESDDEE
modifications: 35S-labelled
